The DeepSol protein solubility set

Assay: soluble on expression in E. coli; label from the status in PepcDB or PDB records
For “MKRFNVLKYIRTTKANIQTIAMPLTTKPLSLKINAALFDVDGTIIISQPAIAAFWRDFGKDKPYFDAEHVIHISHGWRTYDAIAKFAPDFADEEYVNKLEGEIPEKYGEHSIEVPGAVKLCNALNALPKEKWAVATSGTRDMAKKWFDILKIKRPEYFITANDVKQGKPHPEPYLKGRNGLGFPINEQDPSKSKVVVFEDAPAGIAAGKAAGCKIVGIATTFDLDFLKEKGCDIIVKNHESIRVGEYNAETDEVELIFDDYLYAKDDLLKW”, the “soluble on expression in E. coli” value was “soluble”.
For “MGSDKIHHHHHHMEAEIELKLFFPENKREALVSLLNSLPHSDAKGAIHLTNSYYDTPDLQLRRWDMGLRIRGRDGQFEQTIKTAGTVVGGVHSRPEYNIDIDQAKVNLSLFPTEIWPEGAEIGPVQDALVSLFDTDFTRMSWHIYLDESLVEVALDIGSISANGQCEPICELEFELLAGDAQALLALAERVTEQIPARLGRASKAQRGYRLAAMASPLQLDTLAFIALPKKGTPKQALVTLLETGLDRWQLLEEMLLESRQAARQLPLLGYRLRACIRLLRCTLAQFSLLDDKLLQAFDAIESQLSFVDKGLSLCELLDGDGALLSNLSEPEGLLDAVRHELAALEMPQKIDAMLNHVTYGQLQVRLVSLLMAVNAGQVYISEQQSLQAFADRLQEASWQQIVDLMPSNAELSSEDYQSFAKALDESILVGVAYGELYKHKSRDQFRAPWQDLVLGIRTLGAYHSLRQTAATQGRDIDDWLDSKEQSLLFAMEHSRRSALKVQPYWR”, the “soluble on expression in E. coli” value was “not soluble”.
For “MFTHLDENQQPRMVDISQKVAGDRRAVAQCIVQLPKAIKDYLTGQEIFLKKGPVIQTAIIAGTMAVKKTADLIPFCHTLPIHGCKFDINIVYQKRDYLEIFLQCAVNTNYKTGVEMEALCGVSVAALTIYDMCKSISSEIIIKNTKLIEKTGGKADVSQTPLYGLVLTGGKSRRMGKDKALINYQGQPHGQYIYDLLAKYCEQVFLSARPSQWQGTPLENLPTLVDRGESVGPMSGILTALQSYPGVNWLIIACDLAYINSTMVEKLIAQARQDLVATCYENADQGFPEALCGFYTPLALQLFTKAQNIGLHCPVKILQMADCQLIKPDNLFDIANINSPEDYGQINLEHHHHHH”, the “soluble on expression in E. coli” value was “not soluble”.
With “MSLDTFKNKPLGDNFTLTDSNGNTITEADIRSKPSIIFFGFTMCPESCPTTLTNLDRWLTSLGADADKLGVWFVTVDPERDTPEVLHDYLSNFNHKIVGISGEPEKVHKMVDSFNIVAEKVPGTDGNYTYNHTAAIFLLKKGGKLAGVIPYKIEKNNEELRDNIAIEKLKQLVLNEGHHHHHH” the “soluble on expression in E. coli” value was “soluble”.
For “MGSDKIHHHHHHMDKALLHFDNSYARDLEGFYAPWQAATAPAPRLLLLNQALAEELGLDSATLDDELGAAIFSGNQVPEGALPLAQAYAGHQFGHFSPQLGDGRALLLGELIDRHGRRRDMQLKGSGRTPFSRGGDGKAALGPVLREYVIGEAMHALGIPTTRALAAVTTGETVRRETWLPGAILTRIAASHIRVGTFQFFAARNENVRVKQLADYTIARHYPPLKGADNPYLELFAAVSAAQAALIARWMLVGFIHGVMNTDNMSIAGETIDYGPCAFMDNYDPETVFSSIDAHGRYAYAHQPLIAQWNLTRFAETLIDLVHPDPDEAARLLTEQLNEFPKLYTRHWLDGMRAKMGLATAEDGDLALAQALLSAMEGQNADFTQVFRGLSAAVRGDPAQVRAHFVNQAPFDLWLAQWQARLAHESATAEARAEAMDQVNPLYIPRNHKVEEALAAATLNQDLTPFKALLAVLERPFAERPGLESYTQPAPEDFGPFKTFCGT”, the “soluble on expression in E. coli” value was “not soluble”.
With “MGSDKIHHHHHHMSSCGKNENPQEMNRRKFLKVFGGGAVASSAALYGCAPKNEPGAAVALGEVPTDKMTYRQHPTNGDKVSILGYGCMRWPLKQGSDGKDQIDQEAVNRLVDYAIEHGVNYFDTSPVYVQGMSEKATGIALARHPRNSYYLATKLSNFQNYTRENSLAMYRQSFRDLQTDYLDYYLLHSIGGGNGIELFNDRYINNGMLDFLVKEREAGRIRNLGWSFHGDVKVFDYVLDMGVKWDFVQIQLNYLDWKHASGRNVNADYLYGELEKRGIPAVIMEPLLGGRLSNVPDHIVARLKQQRPENSVASWAFRFAGSPDGVLTVLSGMTYMEHLQDNIRTYSPLIPVTDEEKDFLEETAQLMMKYPTIPCNDCKYCMPCPYALDIPGILLHYNKCVNEGNVPKSAQDENYAKARRAFLVGYDRSVPKLRQANHCTGCEQCNPHCPQGIDIPKEMQRIDKFVEELKVNG” the “soluble on expression in E. coli” value was “not soluble”.
For “MTAFFCTLQDDRIISLDWQEGADIDLIYLAPGRTLPSQKGAVSHVLQGKDLRKGWSIDHGELTVGVSSLAVAVKNANGDVLGAVAVAGLSASVESKIDTIRDTLKETACAIA”, the “soluble on expression in E. coli” value was “not soluble”.
With “MGSDKIHHHHHHMYIFRSIHEIINTIFVAKGLLVEMFEKRKVLSFRYSDALALLKEDENRLKILIEKEIIHQNGNFVELDARFLDFFELLLEANEEINTATVEENIEYLHELMDYYLKEKIQSRKESYVRNIKITFQKLARVTIRNIINLQHNIDNAFKHEPTYQIKIAKLQNLDKKRINIQRLIDSTEHLILHEERDFFRQATDEELTRILLELRQELQLSAHSLIRAQQDIINYLNQIKNQVILVEKIRKVKYLQDQFELRARSNLSEIMERERSLLLEGNTQASFKLSPSYLASDEVRPIILKVISNQKYREIVRKNEAGAFSEEDLEAQAMYEEVINLDEVVTAFVQSGAEARWKGEPVSDLFSFLLQYHFHREVDEKERTTFFCQIVSLYESQLEIRNEFGLHNQYEYAKIYPL” the “soluble on expression in E. coli” value was “not soluble”.
With “MGSDKIHHHHHHMFSPTKLKEKRESQGLSQSQLASSLGISRVSYFNWESGKTKPNQNNLSKLSQILTVDPCYFESEYEIVETYLKLTEKNQKATLHYATELLNKQNEKVVDIPERFAYKVYEKLSAGTGTAYFDDGNYDTVYFNHQFDYDFASWVFGNSMEPTYENGSVALIKQTGFDYDGAIYAIDWDGQTYIKKVYREENGLRLVSLNRNYSDKFAPYDENPRIIGKIVGNFMPLED” the “soluble on expression in E. coli” value was “not soluble”.
For “MGHHHHHHSHMLDDQEAKREAETFKEQGNAYYAKKDYNEAYNYYTKAIDMCPKNASYYGNRAATLMMLGRFREALGDAQQSVRLDDSFVRGHLREGKCHLSLGNAMAACRSFQRALELDHKNAQAQQEFKNANAVMEYEKIAETDFEKRDFRKV”, the “soluble on expression in E. coli” value was “not soluble”.
In the case of “MGSDKIHHHHHHMKVGIDAGGTLIKIVQEQDNQRTFKTELTKNIDQVVEWLNQQQIEKLCLTGGNAGVIAENINIPAQIFVEFDAASQGLGILLKEQGHDLADYIFANVGTGTSLHYFDGQSQRRVGGIGTGGGMIQGLGYLLSQITDYKQLTDMAQHGDRNTIDLKVRHIYKDTEPPIPGDLTAANFGHVLHHLDADFTPSNKLAAVIGVVGEVVTTMAITVAREFKTENIVYIGSSFHNNALLRKVVEDYTVLRGCKPYYVENGAFSGAIGALYLEK”, the “soluble on expression in E. coli” value is reported as “not soluble”.
In the case of “MSPSASDKPLPPHHAEHMAEAVAEACRGVECGDGGPFGAVVVDSNGKVVAKGHNMVLVTKDPTMHAEMTAIKNACKALGTFDLSGHILYTSCYPCPMCMGGCLWARFDAIYYGATAQQAAEIGFDDKAFHDFLKDPKSDEIRKLEHLAADNYLLPFQMWSNKPDKTEY”, the “soluble on expression in E. coli” value is reported as “soluble”.
For “MNTDHERWRTEYAGGTAVAYDDKVVLQGDSARLAGLLQDGGGRAHIYFDGASRGNPGPAAIGWVIVTDDGIVAEGSERIGRATNNQAEYEALIEALAAAADYAFDEAVVKGDSQLIVKQVRGEWDTNDPTLREKRVRVRKLLEEFSEWSLDHVPREINDRADDLANEALDGLEHHHHHH”, the “soluble on expression in E. coli” value was “soluble”.
In the case of “MNALDLDVLQHARDWLASGRRVHLVTVVQTWGSAPRQAGAMLAVRDDGQVVGSVSGGCIEDDLIARARAGTLPERAERLTYGVTRDEATRFGLPCGGTLRLVAEPLAPRDAWLDEVLQAIAEHRLVRRTIDLHTGAAALEAAAPAEGPDFDGRMFRAVYGPHWRLLIIGANQTAQVRADIAATLDFQVIVCDPREEFHAAWHAPHATLVTTMPDDTVLEIGTDERTAIVALTHDPKLDDMVLLEALKSRAFYVGALGSRANQEKRRERLRLFDLGDEDIARLRGPVGLPIASRTPAEIAVAVAAELVWVRNTLGDREPSGAPLPAALAPAR”, the “soluble on expression in E. coli” value is reported as “not soluble”.
With “MGSDKIHHHHHHMAIACVFTRASCGVEAPRVTVEVHLSNGLPAFNLVGLPETSVKEAKERVRSALINAGFEFPQKRITVNLAPADLPKQGGRYDLPIAVGILAASNQVPAKALHQCEFVGGLALSGQIRPCSGLLPAIIAARNDQHHFFMPIENRHEAELVGYKHSYFVAHLQNLAAFLHGQAQLPLLDTLPEWIEEEIQAQSSLCMSDVIGQYQAKHGLEIAAAGGHNMLFIGPPGTGKSMLANRIIPLLPKLTYDEAIEVAAIHSVAGLHVKPQNFLNRPFRSPHHTSSSIALIGGGSHPKPGEISLAHRGILFLDEIAEFPRKVLDCLREPLETGQVEISRAAAKLTFLSRFQLIAAMNPSPCGDTERARSTPDQIQRYLSRLSGPFLDRFDLTVDVPKLPAGTLTQQHQPSESSVEIAKRVKQARDLQLSRSGVLNSELTPKQLKQDGAITQPDLAFLEQSVVSLGLSVRSFHRIQRVSRTIADLQQSPTTERSHIAQALGYRAMDRLLAKLNQQ” the “soluble on expression in E. coli” value was “not soluble”.
For “MGSDKIHHHHHHMNIPIKTLHYFLTLVETGNFTRAAEKSFITQPTLSKIIQRLEENLGQQLLHRNNQKIELTQAGILLENSAREILGQWHRLQEDLTNLSGLKSGHLRLGVCPMMSSLIIDLLTAFRQQYPGIELQMYEYGGFGCEQALLNNSLDIAFTALPTTHDIELANRALTRYPLLACLPKDHALAQQEAVTWQDFEAYPFILYNEDFSLAKLITRLSHKAGVQLNIAFRSGQWDFLATMVEAQMGVAILPEPICHKLQGSELVFKPIRPNLTWDLALIWRKDLPLTPAAQALLDLSEQAHLHP”, the “soluble on expression in E. coli” value was “not soluble”.
With “MSLESTNRLRYLIAGTGGVGGSIAGFLSLAGKDVTCIARGAHLQAIQQDGLKLKSDLKGEHALRINACTAEEYNGKADVIFVCVKGYSVDSITELIKRAAHDRTIVIPILNVYGTGPRIQRLVPGVTVLDGCIYIVGFVSGPGEITQMGTIFRLVYGAHRGILVPAGLMEAVQRDLQESGIKVEISSDINRDTFIKWSFISAMAVTGAYFDVPMGEVQKPGKVRDTFIGLSTESAALGKKLGIEFKEDIVTYNLKVIDKLAPESTASMQKDIARGHESEVQGLLFDMITAAEEQGIDVPTYREVAKKFIKQEGHHHHHH” the “soluble on expression in E. coli” value was “soluble”.
With “EFRKLGEVCESTNKKTLKISEVSEVKNKGMYPVINSGRDLYGYYHDFNNDGENITIASRGEYAGFINYFNEKFFAGGLCYPYKVKDTNELLTKFLYFYLKTNEIQIMENLVFRGSIPALNKADIETLTIPIPPLEIQQEIVKILDQFSA” the “soluble on expression in E. coli” value was “not soluble”.
With “MSLLASLGGLVSCAAKVHFKEEGNAMNELIANHDFDFRQLVTAAEGQPVTDTFQIAKAFGKRHADVLRALKNCHCSEDFRRAHFCVSEKINNLGIFDKKQIYYRMDFSGFVMLVMGFNGAKADAVKEAYINAFNWMSAELRKYSESYEAERNAIMLEYMKEKDVASMSGRLLNRWGKIKKPQLLARIGRLEQHGQTVIPGLTNEGHHHHHH” the “soluble on expression in E. coli” value was “not soluble”.
In the case of “SVKVVIEADGGSRGNPGPAGYGAVVWTADHSTVLAESKQAIGRATNNVAEYRGLIAGLDDAVKLGATEAAVLMDSKLVVEQMSGRWKVKHPDLLKLYVQAQALASQFRRINYEWVPRARNTYADRLANDAMDAAAQSAAAD”, the “soluble on expression in E. coli” value is reported as “soluble”.
In the case of “MGSDKIHHHHHHMTDEHSVFEYKIGLLAPSRVGKSTLIAGLLTEGQQQLAQDSSVHLLTADRPTKNRLAATYNLVSGALKARMFEPGLVPSTSDPSWFRLLLEARGQDLQIRFDILDYPGAWLEGAGEGTEDEQKWNECEAFLADSSVLILPIDSVLLMDSGDDHAHLLASHLSVFQINQAVLRWAKNRRELSGEPAMIVFCPVKCETYLSDSGSLQDHAGTLRGKVVDQFSDVLKTVRDAAPHAAVRYLPIDTFGCVELVSARWIHAQGSPGGEMLVPKYRVRPPGQIVRKGLDDLLTLLCRQLVDTARAQSERTTAAKQTAALNSRNHAELREGFFRDLWLNFNGERNRRRHTAATDERLFAMSQRTTQSLFDVLTALAGRESGPRLHHLS”, the “soluble on expression in E. coli” value is reported as “not soluble”.
